Data published in patent US20250122306A1 (SUTRO BIOPHARMA, published 2025).
Residue numbers refer to the chain shown, from its start.

How the values were obtained:
[1] = biological target: T1, cynomolgus tissue factor on HEK293T-cynoTF cells (cynomolgus monkey, UniProt P13726 33-294 (human entry)); assay: flow cytometry on HEK293T-cynoTF cells, one-site fit of MFI
T1 construct: stably transfected HEK293T cells
T1 chain: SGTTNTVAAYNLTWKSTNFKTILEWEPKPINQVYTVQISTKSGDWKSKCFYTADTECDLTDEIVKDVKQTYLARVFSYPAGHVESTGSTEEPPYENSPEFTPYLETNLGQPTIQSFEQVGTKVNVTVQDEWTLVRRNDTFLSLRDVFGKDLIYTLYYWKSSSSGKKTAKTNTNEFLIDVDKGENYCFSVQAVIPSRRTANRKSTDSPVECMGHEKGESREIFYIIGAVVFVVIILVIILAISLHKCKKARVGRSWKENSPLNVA
Text: (§1) HEK293T, BxPC3 cells (TF positive) and NCI-H1703 (TF negative) cells were obtained from ATCC (American Type Culture Collection) and maintained in DMEM: F12 (1:1), high glucose (Corning) supplemented with 10% heat-inactivated fetal bovine serum (ThermoScientific), 1× Penicillin/Streptomycin (Corning) and 2 mmol glutamax (Thermo Fisher Scientific). To generate cells that stably expressing human tissue factor (HEK293T-humanTF) or cynomolgus tissue factor (HEK293T-cynoTF), HEK293T cells were transfected with plasmid vectors that contain the corresponding protein sequence and stable clones were selected with puromycin.
(§2) For a fluorescence-activated cell sorting (FACS) cell-binding assay, cells were collected by Accutase and counted by the Vi-CELL Cell Viability Analyzersharvested and, then re-suspended in FACS buffer (DPBS buffer supplemented with 1% bovine serum albumin). A total of 200,000 cells in 100 μL were incubated on ice with 100 μL of anti-TF antibodies in each well of a 96-well plate. Cells were washed twice with ice-cold FACS buffer and then incubated on ice for 60 mins with 5 μg/mL Alexa 647-labeled donkey anti-human Fc antibody (Jackson ImmunoResearch). Unstained cells and cells stained with secondary antibody alone were used as controls. Cells were washed twice with FACS buffer and analyzed using a BD FACS Canto system. Geometric mean fluorescence intensities (MFI) were fitted using non-linear regression analysis with one site specific binding equation on GraphPad Prism (GraphPad Software; La Jolla, CA).

[2] = biological target: T2, human tissue factor on cells (human, UniProt P13726 33-295); assay: flow cytometry on HEK293T-humanTF cells, one-site fit of MFI
T2 construct: cell-surface TF, transfected (HEK293T-humanTF) or endogenous (tumour lines, keratinocytes); the cell line is named under assay; also called HEK293T-humanTF; TF on BxPC3, primary human keratinocytes, NCI-H292, HCC1954, NCI-H1975
Text: as §1, §2

[3] = biological target: T3, human tissue factor (human TF, Lake Pharma) (human, UniProt P13726 33-251, limits assumed); assay: Biacore SPR kinetics, antibody captured on anti-Fc, 1:1 Langmuir fit
T3 construct: bought recombinant antigen; also called CD142
Description: (§3) Anti-Fc polyclonal antibodies were immobilized onto a CM4 chip (Cytiva #BR100534) using amine coupling chemistry (Human Antibody Capture Kit, Cytiva #BR100839). The immobilization steps were carried out at a flow rate of 25 μL/min in 1×HBS-EP+buffer (Cytiva #BR100669). The sensor surfaces were activated for 7 min with a mixture of N-hydroxysuccinimide (NHS, 0.05 M) and 1-ethyl-3-(3-dimethylaminopropyl)-carbodiimide (EDC, 0.2 M). The anti-Fc polyclonal antibodies were injected over all 4 flow cells at a concentration of 25 μg/mL in 10 mM sodium acetate, pH 4.5, for 7 min. Ethanolamine (1 M, pH 8.5) was injected for 7 min to block any remaining activated groups.
(§4) Off-rate and kinetic binding experiments were performed at 25° C. using 1×HBS-EP+buffer. Antibodies were injected over the anti-Fc surface at a concentration of 3 μg/mL for 12 seconds at a flow rate of 10 μL/min on flow cells 2, 3 and 4, followed by a buffer wash for 30 seconds at the same flow rate. Single point off-rate analysis was carried out using an antigen concentration of 100 nM. […] After capturing ligand (antibody) on the anti-Fc surface, the analyte (human TF, Lake Pharma; cynomolgus TF, Sino Bio #90885-C08H; mouse TF, R&D Systems #3178-PA) was bound for 180 seconds, followed by a 420 second dissociation phase at a flow rate of […]. Between each ligand capture and analyte binding cycle, regeneration was carried out using 2 injections of 10 mM glycine pH 2.0 for 30 seconds at 30 μL/min, followed by a 30 second buffer wash step.
(§5) The data were fit with the Biacore T200 Evaluation software, using a 1:1 Langmuir binding model. KD (affinity, nM) was determined as a ratio of the kinetic rate constants calculated from the fits of the association and dissociation phases.

[4] = biological target: T4, cynomolgus tissue factor (cynomolgus TF, Sino Bio #90885-C08H) (cynomolgus monkey, UniProt P13726 33-251 (human entry)); assay: as above
T4 construct: bought recombinant antigen; also called cyno TF
T4 chain: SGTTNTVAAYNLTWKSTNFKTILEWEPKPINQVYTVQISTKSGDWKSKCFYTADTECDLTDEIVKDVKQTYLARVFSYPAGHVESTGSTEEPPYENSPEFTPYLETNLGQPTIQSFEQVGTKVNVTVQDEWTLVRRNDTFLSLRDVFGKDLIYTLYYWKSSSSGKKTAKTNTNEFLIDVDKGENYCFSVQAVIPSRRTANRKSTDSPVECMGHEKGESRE
Description: as §3, §4, §5

[5] = biological target: tissue factor reagent of the Tissue Factor Activity Assay Kit (Abcam #ab108906) (UniProt P13726 33-295, limits assumed); assay: cell-based or functional assay
[6] = biological target: T2, human tissue factor on cells; assay: flow cytometry on BxPC3 cells (TF positive), one-site fit of MFI
Text: as §1, §2

[7] = biological target: T3, human tissue factor (human TF, Lake …); assay: Biacore SPR, single-point off-rate (100 nM antigen), antibody captured on anti-Fc
Description: as §3, §4

[8] = biological target: T4, cynomolgus tissue factor (cynomolgus …); assay: as above
Description: as §3, §4

B1: mAb 44: aTF_2900-F09_HC_Y180/F404TAG_SerOpt; Trastuzumab LC SerOpt (antibody, human IgG1, kappa, V domains shown)
VH: EVQLVESGGGLVQPGGSLRLSCAASGFTIHDYVIHWVRQAPGKGLEWVGYIDPSNGYTYYADSVKGRFTISADTSKNTAYLQMNSLRAEDTAVYYCARDDQSISSPLDYWGQGTLVTVSS
VL: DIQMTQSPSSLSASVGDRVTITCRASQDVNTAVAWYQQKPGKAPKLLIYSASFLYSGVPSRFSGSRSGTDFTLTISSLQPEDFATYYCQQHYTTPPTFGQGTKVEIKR
modifications: non-natural amino acid (pAMF) at TAG sites Y180 and F404 (EU), * in the sequence
notes: unconjugated full-length IgG1/kappa
In the case of B1, the “Bmax (MFI)” value [1] is reported as 429000 MFI, the Kd [1] is reported as 29 nM and the “Bmax (MFI)” value [2] is reported as 296000 MFI. The Kd [2] was 0.9 nM, the Kd [3] was 5.42 nM and the koff [3] was 0.00196 s⁻¹. The kon [3] was 362000 M⁻¹ s⁻¹, the Kd [4] was 18.9 nM and the koff [4] was 0.00309 s⁻¹. For the same binder, the kon [4] was 164000 M⁻¹ s⁻¹.

B2: mAb 42: aTF_2900-C11_HC_Y180/F404TAG_SerOpt; Trastuzumab LC SerOpt (antibody, human IgG1, kappa, V domains shown)
VH: B1 VH with H30S, D31Q, V33W, S54Y, D100Y, Q101G, I103W, S104R, S105I, P106R
VL: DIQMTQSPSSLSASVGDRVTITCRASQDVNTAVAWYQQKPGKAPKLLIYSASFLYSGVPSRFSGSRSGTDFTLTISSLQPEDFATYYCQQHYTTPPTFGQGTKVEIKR
modifications: non-natural amino acid (pAMF) at TAG sites Y180 and F404 (EU), * in the sequence
notes: as for B1
B2 was tested, and the “Bmax (MFI)” value [1] was 426000 MFI, the Kd [1] was 16 nM and the “Bmax (MFI)” value [2] was 275000 MFI. For the same binder, the Kd [2] was 0.8 nM, the Kd [3] was 3.59 nM and the koff [3] was 0.000674 s⁻¹. The kon [3] was 188000 M⁻¹ s⁻¹, the Kd [4] was 24.2 nM and the koff [4] was 0.00309 s⁻¹. It also gave a kon [4] of 128000 M⁻¹ s⁻¹.

B3: mAb 45: aTF_2900-H06_HC_Y180/F404TAG_SerOpt; Trastuzumab LC SerOpt (antibody, human IgG1, kappa, V domains shown)
VH: B1 VH with H30A, D31A, V33I, I103F, L107F
VL: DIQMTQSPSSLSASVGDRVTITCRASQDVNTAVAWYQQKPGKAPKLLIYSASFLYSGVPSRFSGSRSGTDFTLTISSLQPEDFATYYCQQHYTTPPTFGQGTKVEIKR
modifications: non-natural amino acid (pAMF) at TAG sites Y180 and F404 (EU), * in the sequence
notes: as for B1
For B3, the “Bmax (MFI)” value [1] was 441000 MFI, the Kd [1] was 7.5 nM and the “Bmax (MFI)” value [2] was 302000 MFI. For the same binder, the Kd [2] was 1.3 nM, the Kd [3] was 7.78 nM and the koff [3] was 0.00426 s⁻¹. For the same binder, the kon [3] was 547000 M⁻¹ s⁻¹, the Kd [4] was 0.255 nM and the koff [4] was 0.000309 s⁻¹. It also gave a kon [4] of 1.21e+06 M⁻¹ s⁻¹.

B4: mAb 43: aTF_2900-F06_HC_Y180/F404TAG_SerOpt; Trastuzumab LC SerOpt (antibody, human IgG1, kappa, V domains shown)
VH: B1 VH with H30S, D31I, V33T, F68L, D100P, L107F
VL: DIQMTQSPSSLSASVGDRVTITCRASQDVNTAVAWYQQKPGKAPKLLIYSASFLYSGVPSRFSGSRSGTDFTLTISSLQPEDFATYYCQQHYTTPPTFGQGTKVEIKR
modifications: non-natural amino acid (pAMF) at TAG sites Y180 and F404 (EU), * in the sequence
notes: as for B1
For B4, the “Bmax (MFI)” value [1] was 419000 MFI, the Kd [1] was 21 nM and the “Bmax (MFI)” value [2] was 253000 MFI. It also gave a Kd [2] of 1.7 nM, a Kd [3] of 19.1 nM and a koff [3] of 0.00594 s⁻¹. The kon [3] was 311000 M⁻¹ s⁻¹, the Kd [4] was 7.33 nM and the koff [4] was 0.00231 s⁻¹. The kon [4] was 316000 M⁻¹ s⁻¹.

B5: SRP2799-A05 (antibody, IgG1, V domains shown)
VH: EVQLVESGGGLVQPGGSLRLSCAASGFNISSYWIHWVRQAPGKGLEWVGYIDPYSGSTYYADSVKGRFTISADTSKNTAYLQMNSLRAEDTAVYYCARSDYYYVDEYMDYWGQGTLVTVSS
VL: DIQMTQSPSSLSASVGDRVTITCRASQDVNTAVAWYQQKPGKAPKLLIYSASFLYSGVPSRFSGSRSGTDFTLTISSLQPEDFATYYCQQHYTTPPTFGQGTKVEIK
notes: also called SRP2799-A05 (parent)
B5 was tested, and the “FX conversion (% inhibition), 1000 nM antibody” value [5] was 1.12%, the “Bmax (MFI)” value [6] was 52700 MFI and the Kd [6] was 26.1 nM. The koff [7] was 0.00304 s⁻¹ and the koff [8] was 0.0337 s⁻¹.

B6: mAb 49: aTF_2842-G04_HC2_Y180/F404TAG; aTF_2842-G04_LC2 (antibody, IgG1, V domains shown)
VH: QVQVQESGPGLVKPPGTLSLTCAVSGFSLSYYGVSWVRQPPGKGLEWIGTIDSSGRTYYNPSLKSRVTISNDNAPNTVSLKLSSVTAADTAVYYCARDFYGWNSGALDIWGQGTLVTVSS
VL: DLQLTQSPSTLSASVGDRVTITCRASQSVYSNKYLSWYQQKPGKAPKLLIYKASTLASGVPSRFSGSGSGTEFTLTISSLQPDDFATYYCAAAYSDDSDTAFGQGTKVEIKR
modifications: non-natural amino acid (pAMF) at TAG sites Y180 and F404 (EU), * in the sequence
notes: unconjugated full-length IgG1/kappa; also called 2842-G04 HC2/LC2
With B6 the “Bmax (MFI)” value [1] was 465000 MFI, the Kd [1] was 5.1 nM and the “Bmax (MFI)” value [2] was 244000 MFI. The Kd [2] was 1.4 nM, the Kd [3] was 13.8 nM and the koff [3] was 0.000865 s⁻¹. For the same binder, the kon [3] was 62500 M⁻¹ s⁻¹, the Kd [4] was 29.9 nM and the koff [4] was 0.00241 s⁻¹. For the same binder, the kon [4] was 80800 M⁻¹ s⁻¹.
